Source: patent US20100273983A1, “METHOD OF PURIFYING PEPTIDES BY SELECTIVE PRECIPITATION” (The University of Queensland, priority 2007, published 2010)

Columns and labels:
Assay type in all cases: physicochemical
[1] = Ethanol precipitation of AM1-spiked E. coli cell lysate supernatant containing MBP; AM1 in supernatants and pellets by RP-HPLC
Protocol: For the precipitation with ethanol the cell lysate supernatant was spiked with chemically synthesized AM1 peptide to a final concentration of 0.286 μg AM1 per μL. AM1 was custom synthesized by Genscript (Piscataway, USA). The purity was >95% by reversed-phase high performance liquid chromatography. The peptide was stored in a lyophilized form and was dissolved in 0.1% v/v TFA prior to use (cAm1=1 mg/mL).
For the ethanol precipitation experiment, 420 μL of AM1 (in 0.1% v/v TFA, 1 μg/μL) was added to 1050 μL of lysate supernatant and mixed by vortexing. The samples were prepared with different ethanol concentrations ranging from 50-75% (v/v).
The samples were incubated on a roller mixer at speed adjustment 7.5 for 17 h. The tubes were centrifuged at 15,000 rpm for 10 min. […] The protein present in the urea dissolved pellets, as well as the supernants was directly analyzed by Bradford and SDS-PAGE.
For quantitative analysis of AM1 peptide in the supernatants and pellets, reversed-phase high performance liquid chromatography (RP-HPLC) was used with an analytical C18 column (Jupiter 00F-4053-E0, Phenomenex, UK). […]
The retention time of AM1 at the above mentioned elution gradient and flow rate was tR=21.5 min. […] The following equation was used to determine the amount of AM1 in the supernatants and pellets as a function of the peak area detected by RP-HPLC: Detected peak area/1207925=μg of AM1 peptide.

[2] = Solvent (ethanol/acetone) precipitation of TEVp cleaved Trx-P11-2 homogenate; peptide in supernatants and pellets by HPLC
[3] = as above; remark: listed apart in the source
Protocol: Homogenate was heat-treated by incubating samples in a water bath at 55° C. for 15 min. The effect on the solubility of the fusion protein was assessed by SDS-PAGE and HPLC analysis of heat-treated homogenate before and after centrifugation (10000×g, 10 min). The effect on the stability of the P11-2 peptide was analyzed by comparing cleavage reactions (at 0, 1, 2 and 3 h) with a final substrate concentration of 160 μM Trx-P11-2 and 8 μM TEVp, prepared with heat-treated and non heat-treated homogenate. Conditions were optimized by evaluating reactions prepared with 8 μM TEVp and 160, 240 and 320 μM Trx-P11-2 after 0, 1, 2 and 3 h. The effect of salt on enzyme activity was assessed by analyzing cleavage reactions prepared with 8 μM TEVp and 320 μM Trx-P11-2, that were supplemented with either 50, 150 or 250 mM NaCl. These cleavage reactions were analyzed at 0, 1, 2 and 3 h by SDS-PAGE and HPLC. After 3 h, ethanol was added to a final concentration of 75% (v/v) and samples were incubated at room temperature for 10 min before centrifuging at 10 000×g for 5 min. The supernatants were diluted with water to reduce the percentage of ethanol and analyzed by HPLC.
All precipitation experiments were performed with the same batch of Trx-P11-2, cleaved with a 40:1 (substrate:enzyme) molar ratio, a substrate concentration of 320 μM (5.12 mg ml^−1) and in the presence of 250 mM NaCl. The precipitation samples were centrifuged for 5 min at 10000×g, and the supernatants collected and analyzed by HPLC to quantify the peptide present. The pellets were resuspended in 6 M guanidine hydrochloride to the same volume as the supernatants, and analysed by HPLC. Acetone and ethanol precipitations were performed using HPLC grade ethanol and acetone, which was added to samples to final concentrations of 20, 40, 60, 65, 70, 75, 80, and 85% (v/v) before incubating for 10 min at room temperature and centrifuging for 5 min at 10000×g. The supernatants were collected and dried using an RVC 2-18 speed-vac (Christ, Osterode, Germany), the pellets were air-dried and both were resuspended in 6 M guanidine hydrochloride. The samples were analyzed by HPLC to quantify the peptide and Bradford assay to quantify the total protein remaining. The peptide and protein remaining in the pellets and supernatants were compared to the results obtained for the starting cleavage reactions to determine the percentages of peptide and protein in each fraction.
Reversed-phase HPLC(RP-HPLC) was carried out using an analytical C5 column (Jupiter, 150 mm×4.6 mm, 5μ, 300 Å) (Phenomenex, Torrance, Calif., USA) connected to a LC-10Avp series HPLC system (Shimadzu, Kyoto, Japan) with a mobile phase A, 0.1% (v/v) trifluoroacetic acid (TFA) in water and B, 90% (v/v) acetonitrile, 0.1% (v/v) TFA in water. Initial analysis of fusion protein and cleavage was performed using a linear gradient from 10% B to 60% B in 50 min at a flow rate of 1 ml min^−1. Peptides were analyzed, collected and quantified using a linear gradient from 10% B to 35% B in 25 min. Final peptide preparation was assessed using a linear gradient from 10% B to 90% B in 80 min. All samples were diluted 1:2 in 6 M guanidine-HCl prior to injection for the purpose of column preservation unless stated otherwise.

[4] = Stability of peptide and fusion protein in cell homogenate (TEVp cleavage reactions, HPLC/SDS-PAGE); details: homogenate without heat-treatment; degradation most likely by cellular proteases
Protocol: All cleavage reactions were performed with recombinant TEVp, using homogenate prepared as above, where the Trx-P11-2 content had been HPLC quantified. Cleavage reactions were performed in TEVp reaction buffer, at room temperature, in sealed tubes that had been purged of air with nitrogen. All reactions were stopped by the addition of equal volumes of either 6 M guanidine hydrochloride or 2×SDS-PAGE sample buffer and analyzed by HPLC (to quantify peptide generation) and SDS-PAGE (to confirm cleavage of the fusion protein), respectively.
Homogenate was heat-treated by incubating samples in a water bath at 55° C. for 15 min. […] The effect on the stability of the P11-2 peptide was analyzed by comparing cleavage reactions (at 0, 1, 2 and 3 h) with a final substrate concentration of 160 μM Trx-P11-2 and 8 μM TEVp, prepared with heat-treated and non heat-treated homogenate. […] The effect of salt on enzyme activity was assessed by analyzing cleavage reactions prepared with 8 μM TEVp and 320 μM Trx-P11-2, that were supplemented with either 50, 150 or 250 mM NaCl. These cleavage reactions were analyzed at 0, 1, 2 and 3 h by SDS-PAGE and HPLC. […] The supernatants were diluted with water to reduce the percentage of ethanol and analyzed by HPLC.

Substance	percentage of AM1 present in the precipitate ([1]; ethanol 50-75% (v/v), 23° C., 17 h, relative to AM1 in starting material)	peptide in the original lysate recovered from the supernatant ([1]; precipitation at greater than 65% (v/v) ethanol)	solubility of purified peptide at high solvent concentrations ([2]; purified peptide, results not shown)	behaviour of peptide on solvent precipitation without salt ([2]; standard TEVp reaction buffer (10 mM Tris-Cl, 0.5 mM EDTA, 5 mM DTT, pH 8.0), in homogenate)	yield of peptide in the supernatant after precipitation ([3]; 50 mM NaCl, 75% (v/v) ethanol) [%]	yield of peptide in the supernatant after precipitation ([3]; 150 mM NaCl, 75% (v/v) ethanol) [%]	yield of peptide in the supernatant after precipitation ([3]; 250 mM NaCl, 75% (v/v) ethanol) [%]	peptide losses on acetone precipitation ([3]; 75% (v/v) acetone, 250 mM salt)	peptide yield on ethanol precipitation ([3]; 75% (v/v) ethanol, 250 mM salt)	solubility of peptide in acetone ([3]; 85% (v/v) acetone, 250 mM salt)	losses of peptide on ethanol precipitation ([3]; 85% (v/v) ethanol, 250 mM salt) [%]	yield of peptide after removal of contaminating proteins with solvent precipitation ([3]; finalized process, 1 L culture, 75% (v/v) ethanol, 250 mM NaCl) [%]	losses of peptide on precipitation ([3]; room temperature, 70-75% (v/v) ethanol or acetone, 250 mM salt) [%]	stability in homogenate [4]
Ac-MKQLADSLHQLARQVRSLEHA-CONH2 (Ac-MKQLADSLHQLARQVRSLEHA-NH2) [AM1]	approximately 5%	Over 80%	–	–	–	–	–	–	–	–	–	–	–	–
QQRFQWQFEQQ [P11-2]	–	–	soluble	co-precipitated with the contaminating proteins	55	81	95	exceeding 30%	over 90%	almost completely insoluble	> 70	95	< 5	quickly degraded
